Where a chain is given by its changes, count along the chain named. Names may count otherwise. Blank lines part the entries; values can stand above or below the molecule they belong to.
Tests used:
[1] = target: GL3^552–637, N6His- and GST-tagged recombinant protein (Arabidopsis) (UniProt Q9FN69); assay: AlphaScreen or HTRF; ALPHA competition binding, apparent Kd; 100 nM N6His-tagged and 100 nM GST-tagged copies with untagged competitor (R^ACT 0–8 μM, GL3^ACT 0–10 μM); room temperature 2 h; one-site fit
[2] = target: the molecule itself; assay: biological repeat 2
[3] = target: R^525–610, N6His- and GST-tagged recombinant protein (maize); assay: AlphaScreen or HTRF; ALPHA saturation binding, apparent Kd; N6His-tagged and GST-tagged copies, one at 100 nM (R^ACT) or 500 nM (GL3^ACT), the other 0–4 μM (R^ACT) or 0–5 μM (GL3^ACT); Nickel Chelate donor and anti-GST acceptor beads; room temperature 2 h; one-site fit
[4] = target: T1, R^525–610 L569H, N6His- and GST-tagged recombinant protein (maize); assay: biological repeat 1
T1 chain: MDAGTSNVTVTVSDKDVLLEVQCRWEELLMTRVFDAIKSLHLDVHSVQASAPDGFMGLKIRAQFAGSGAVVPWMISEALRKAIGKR

[5] = target: T2, R^525–610 A573S, N6His- and GST-tagged recombinant protein (maize); assay: biological repeat 1
T2 chain: T1 chain with H45L, A49S

[6] = target: the molecule itself; assay: biological repeat 1
[7] = target: T1, R^525–610 L569H, N6His- and GST-tagged …; assay: biological repeat 2
[8] = target: T2, R^525–610 A573S, N6His- and GST-tagged …; assay: biological repeat 2
[9] = target: R^525–610 V568S, N6His- and GST-tagged recombinant protein (maize); assay: AlphaScreen or HTRF; ALPHA saturation binding, apparent Kd; N6His-tagged and GST-tagged copies, one at 100 nM (R^ACT) or 500 nM (GL3^ACT), the other 0–4 μM (R^ACT) or 0–5 μM (GL3^ACT); Nickel Chelate donor and anti-GST acceptor beads; room temperature 2 h; one-site fit

- Kd [1]: 1280 nM
Molecule: untagged GL3^552–637 (from UniProt Q9FN69 552-637) (domain or fragment)

- Kd [3]: 100 nM
B1: R^525–610, N6His- and GST-tagged recombinant protein (domain or fragment)
chain: T1 chain with H45L
- Kd [2]: 90 nM

- Kd [4]: 340 nM
- Kd [5]: 290 nM
- Kd [7]: 310 nM
- Kd [8]: 250 nM
- Kd [9]: 1720 nM
B2: R^525–610 V568S, N6His- and GST-tagged recombinant protein (domain or fragment)
chain: T1 chain with V44S, H45L
- Kd [6]: 1850 nM

Source: publication PMC8202348 (2021)
